Patent CN102559636A

Biological target: CD6分子 (CD6 on the cell surface) (human) (UniProt P30203)
Assay: cell-based or functional assay

HUT-78生长抑制率 (CCK-8, 72 h, 100 ng/mL Hum-zap) at T1h 0.8 μM: 11.4%
细胞生长抑制率 of HUT-78 (CCK-8, 72 h, 100 ng/mL Hum-zap) at T1h 8×10-2, 8×10-3 and 8×10-4 μM: > 65%
细胞生长抑制率 of HUT-78 (CCK-8, 72 h, 100 ng/mL Hum-zap) at T1h 8×10-5, 8×10-6, 8×10-7 and 8×10-8 μM: < 10%
Substance: 人源化抗CD6单克隆抗体T1h (Itolizumab) (antibody)
